Bridge positions count the residues as written; N and C are the ends. Square brackets hold non-standard residues; d marks the D form. Bip = N[C@@H](Cc1ccc(-c2ccccc2)cc1)C(=O)O; Phe(4-Cl) = N[C@@H](Cc1ccc(Cl)cc1)C(=O)O; NMeF = CN[C@@H](Cc1ccccc1)C(=O)O; NMeE = CN[C@@H](CCC(=O)O)C(=O)O; hSer = N[C@@H](CCO)C(=O)O; NMeA = CN[C@@H](C)C(=O)O

The target of the test is T1, Human PCSK9 Alexa Fluor 647 (human, UniProt Q8NBP7 31-692, limits assumed, Alexa Fluor 647 label (site not stated)).
T1 construct: Labelled tracer of the TR-FRET assay, 16 nM stock; also called proprotein convertase subtilisin/kexin type 9
In words: TR-FRET competition: PCSK9-Alexa Fluor 647 vs LDLR ECD-Eu kryptate. How it is done: A Proxi plate-low volume assay plate was used for the assay. […] Following a 30 minute incubation, 5 uL of 4 nM Human LDLR extracellular domain-Europium Kryptate was added and the mixture was incubated for an additional 2 hours.
The TR-FRET signal was measured on an EnVision or PheraStar instrument with a 60 μs delay, 330 nm excitation and 665 nm emission (FRET), and 330 nm excitation and 615 nm (Europium). The FRET ratio (FRET/Europium) was used for calculations.

T1 sequence (Q8NBP7 31-692 limits assumed): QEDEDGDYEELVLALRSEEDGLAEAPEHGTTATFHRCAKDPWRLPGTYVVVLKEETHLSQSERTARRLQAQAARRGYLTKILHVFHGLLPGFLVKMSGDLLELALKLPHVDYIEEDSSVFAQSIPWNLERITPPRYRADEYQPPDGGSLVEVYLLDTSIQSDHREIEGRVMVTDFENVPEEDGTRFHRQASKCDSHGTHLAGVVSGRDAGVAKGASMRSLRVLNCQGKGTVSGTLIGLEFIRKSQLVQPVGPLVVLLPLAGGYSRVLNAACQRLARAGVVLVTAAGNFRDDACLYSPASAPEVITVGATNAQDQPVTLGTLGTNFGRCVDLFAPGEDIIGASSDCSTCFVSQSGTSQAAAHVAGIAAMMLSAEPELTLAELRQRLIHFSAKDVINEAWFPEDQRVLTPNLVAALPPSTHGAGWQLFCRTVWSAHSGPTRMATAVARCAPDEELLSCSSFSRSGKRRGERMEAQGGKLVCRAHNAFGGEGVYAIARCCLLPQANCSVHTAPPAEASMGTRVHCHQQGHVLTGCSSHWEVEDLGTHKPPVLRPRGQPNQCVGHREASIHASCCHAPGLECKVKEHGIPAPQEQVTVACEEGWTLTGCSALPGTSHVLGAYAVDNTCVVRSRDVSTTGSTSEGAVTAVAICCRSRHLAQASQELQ

B1: Ac*-F-V-D-T-T-A-(N-Me)F-B-(N-Me)A-E-A-P-C*-G-NH2 (peptide)
peptide: {CH2CO}-FVDTTA[NMeF][Bip][NMeA]EAPCG-NH2
modifications: thioether N-13
SMILES: CC(C)[C@@H]1NC(=O)[C@H](Cc2ccccc2)NC(=O)CSC[C@@H](C(=O)NCC(N)=O)NC(=O)[C@@H]2CCCN2C(=O)[C@H](C)NC(=O)[C@H](CCC(=O)O)NC(=O)[C@H](C)N(C)C(=O)[C@H](Cc2ccc(-c3ccccc3)cc2)NC(=O)[C@H](Cc2ccccc2)N(C)C(=O)[C@H](C)NC(=O)[C@H]([C@@H](C)O)NC(=O)[C@H]([C@@H](C)O)NC(=O)[C@H](CC(=O)O)NC1=O
notes: also called 1-16; Ex. No. 1-16
In turn, B1 gave an IC50 of 7.4 nM and a Maximum % inhibition of 91%.

B2: Ac*-F-V-P-T-T-A-(N-Me)F-B-(N-Me)A-E-A-P-C*-G-NH2 (peptide)
peptide: {CH2CO}-FVPTTA[NMeF][Bip][NMeA]EAPCG-NH2
modifications: thioether N-13; not fully specified
notes: The three-letter form of the same entry prints L-Arg at position 11 where the one-letter form prints A; also called 1-21; Ex. No. 1-21
Turning to B2, the IC50 was found to be 7.2 nM and the Maximum % inhibition came to 81%.

B3: Ac*-F-V-D-T-T-F-(N-Me)A-B-(N-Me)A-E-S-P-C*-G-NH2 (peptide)
peptide: {CH2CO}-FVDTTF[NMeA][Bip][NMeA]ESPCG-NH2
modifications: thioether N-13
SMILES: CC(C)[C@@H]1NC(=O)[C@H](Cc2ccccc2)NC(=O)CSC[C@@H](C(=O)NCC(N)=O)NC(=O)[C@@H]2CCCN2C(=O)[C@H](CO)NC(=O)[C@H](CCC(=O)O)NC(=O)[C@H](C)N(C)C(=O)[C@H](Cc2ccc(-c3ccccc3)cc2)NC(=O)[C@H](C)N(C)C(=O)[C@H](Cc2ccccc2)NC(=O)[C@H]([C@@H](C)O)NC(=O)[C@H]([C@@H](C)O)NC(=O)[C@H](CC(=O)O)NC1=O
notes: also called 1-17; Ex. No. 1-17
B3 displayed an IC50 of 17 nM and a Maximum % inhibition of 91%.

B4: Ac*-F-V-S-T-T-B-(N-Me)A-B-(N-Me)A-D-R-P-C*-NH2 (peptide)
peptide: {CH2CO}-FVSTT[Bip][NMeA][Bip][NMeA]DRPC-NH2
modifications: thioether N-13
SMILES: CC(C)[C@@H]1NC(=O)[C@H](Cc2ccccc2)NC(=O)CSC[C@@H](C(N)=O)NC(=O)[C@@H]2CCCN2C(=O)[C@H](CCCNC(=N)N)NC(=O)[C@H](CC(=O)O)NC(=O)[C@H](C)N(C)C(=O)[C@H](Cc2ccc(-c3ccccc3)cc2)NC(=O)[C@H](C)N(C)C(=O)[C@H](Cc2ccc(-c3ccccc3)cc2)NC(=O)[C@H]([C@@H](C)O)NC(=O)[C@H]([C@@H](C)O)NC(=O)[C@H](CO)NC1=O
notes: also called 2-4; Ex. No. 2-4
With B4, the IC50 was 1.8 nM and the Maximum % inhibition turned out to be 28%.

B5: Ac*-F-V-P-T-T-F-(N-Me)A-B-(N-Me)A-E-A-P-C*-NHEt (peptide)
peptide: {CH2CO}-FVPTTF[NMeA][Bip][NMeA]EAPC-NHEt
modifications: thioether N-13
SMILES: CCNC(=O)[C@@H]1CSCC(=O)N[C@@H](Cc2ccccc2)C(=O)N[C@@H](C(C)C)C(=O)N2CCC[C@H]2C(=O)N[C@@H]([C@@H](C)O)C(=O)N[C@@H]([C@@H](C)O)C(=O)N[C@@H](Cc2ccccc2)C(=O)N(C)[C@@H](C)C(=O)N[C@@H](Cc2ccc(-c3ccccc3)cc2)C(=O)N(C)[C@@H](C)C(=O)N[C@@H](CCC(=O)O)C(=O)N[C@@H](C)C(=O)N2CCC[C@H]2C(=O)N1
notes: also called 3-2; Ex. No. 3-2
Molecule B5 yielded an IC50 of 4.2 nM and a Maximum % inhibition of 83%.

B6: Ac*-F-V-N-T-T-F-(N-Me)A-B-(N-Me)A-(N-Me)E-A-P-C*-NHEt (peptide)
peptide: {CH2CO}-FVNTTF[NMeA][Bip][NMeA][NMeE]APC-NHEt
modifications: thioether N-13
SMILES: CCNC(=O)[C@@H]1CSCC(=O)N[C@@H](Cc2ccccc2)C(=O)N[C@@H](C(C)C)C(=O)N[C@@H](CC(N)=O)C(=O)N[C@@H]([C@@H](C)O)C(=O)N[C@@H]([C@@H](C)O)C(=O)N[C@@H](Cc2ccccc2)C(=O)N(C)[C@@H](C)C(=O)N[C@@H](Cc2ccc(-c3ccccc3)cc2)C(=O)N(C)[C@@H](C)C(=O)N(C)[C@@H](CCC(=O)O)C(=O)N[C@@H](C)C(=O)N2CCC[C@H]2C(=O)N1
notes: also called 3-1; Ex. No. 3-1
B6: the IC50 is 85 nM and the Maximum % inhibition was found to be 61%.

B7: Ac*-F-V-P-T-T-F-(N-Me)A-(p-Cl)F-(N-Me)A-P-A-P-C*-NH2 (peptide)
peptide: {CH2CO}-FVPTTF[NMeA][Phe(4-Cl)][NMeA]PAPC-NH2
modifications: thioether N-13
SMILES: CC(C)[C@@H]1NC(=O)[C@H](Cc2ccccc2)NC(=O)CSC[C@@H](C(N)=O)NC(=O)[C@@H]2CCCN2C(=O)[C@H](C)NC(=O)[C@@H]2CCCN2C(=O)[C@H](C)N(C)C(=O)[C@H](Cc2ccc(Cl)cc2)NC(=O)[C@H](C)N(C)C(=O)[C@H](Cc2ccccc2)NC(=O)[C@H]([C@@H](C)O)NC(=O)[C@H]([C@@H](C)O)NC(=O)[C@@H]2CCCN2C1=O
notes: also called 2-1; Ex. No. 2-1
In turn, B7 registered an IC50 of 11.5 nM and a Maximum % inhibition of 50%.

B8: Ac*-F-V-P-T-T-V-(N-Me)A-(p-Cl)F-(N-Me)A-E-A-P-C*-NH2 (peptide)
peptide: {CH2CO}-FVPTTV[NMeA][Phe(4-Cl)][NMeA]EAPC-NH2
modifications: thioether N-13
SMILES: CC(C)[C@@H]1NC(=O)[C@H]([C@@H](C)O)NC(=O)[C@H]([C@@H](C)O)NC(=O)[C@@H]2CCCN2C(=O)[C@H](C(C)C)NC(=O)[C@H](Cc2ccccc2)NC(=O)CSC[C@@H](C(N)=O)NC(=O)[C@@H]2CCCN2C(=O)[C@H](C)NC(=O)[C@H](CCC(=O)O)NC(=O)[C@H](C)N(C)C(=O)[C@H](Cc2ccc(Cl)cc2)NC(=O)[C@H](C)N(C)C1=O
notes: also called 2-6; Ex. No. 2-6
Regarding B8, the IC50 is 5.4 nM and the Maximum % inhibition worked out at 83%.

B9: Ac*-F-V-P-T-T-F-(N-Me)A-(p-Cl)F-(N-Me)A-D-A-P-C*-NH2 (peptide)
peptide: {CH2CO}-FVPTTF[NMeA][Phe(4-Cl)][NMeA]DAPC-NH2
modifications: thioether N-13
SMILES: CC(C)[C@@H]1NC(=O)[C@H](Cc2ccccc2)NC(=O)CSC[C@@H](C(N)=O)NC(=O)[C@@H]2CCCN2C(=O)[C@H](C)NC(=O)[C@H](CC(=O)O)NC(=O)[C@H](C)N(C)C(=O)[C@H](Cc2ccc(Cl)cc2)NC(=O)[C@H](C)N(C)C(=O)[C@H](Cc2ccccc2)NC(=O)[C@H]([C@@H](C)O)NC(=O)[C@H]([C@@H](C)O)NC(=O)[C@@H]2CCCN2C1=O
notes: also called 2-2; Ex. No. 2-2
In turn, B9 gave an IC50 of 0.4 nM and a Maximum % inhibition of 72%.

B10: Ac*-F-V-HomoSer-T-T-F-(N-Me)A-(p-Cl)F-(N-Me)A-D-A-P-C*-NH2 (peptide)
peptide: {CH2CO}-FV[hSer]TTF[NMeA][Phe(4-Cl)][NMeA]DAPC-NH2
modifications: thioether N-13
SMILES: CC(C)[C@@H]1NC(=O)[C@H](Cc2ccccc2)NC(=O)CSC[C@@H](C(N)=O)NC(=O)[C@@H]2CCCN2C(=O)[C@H](C)NC(=O)[C@H](CC(=O)O)NC(=O)[C@H](C)N(C)C(=O)[C@H](Cc2ccc(Cl)cc2)NC(=O)[C@H](C)N(C)C(=O)[C@H](Cc2ccccc2)NC(=O)[C@H]([C@@H](C)O)NC(=O)[C@H]([C@@H](C)O)NC(=O)[C@H](CCO)NC1=O
notes: also called 2-3; Ex. No. 2-3
The molecule B10 displayed an IC50 of 0.04 nM and a Maximum % inhibition of 75%.

B11: Ac*-F-V-N-T-T-A-(N-Me)F-B-(N-Me)A-Q-A-P-C*-G-NH2 (peptide)
peptide: {CH2CO}-FVNTTA[NMeF][Bip][NMeA]QAPCG-NH2
modifications: thioether N-13
SMILES: CC(C)[C@@H]1NC(=O)[C@H](Cc2ccccc2)NC(=O)CSC[C@@H](C(=O)NCC(N)=O)NC(=O)[C@@H]2CCCN2C(=O)[C@H](C)NC(=O)[C@H](CCC(N)=O)NC(=O)[C@H](C)N(C)C(=O)[C@H](Cc2ccc(-c3ccccc3)cc2)NC(=O)[C@H](Cc2ccccc2)N(C)C(=O)[C@H](C)NC(=O)[C@H]([C@@H](C)O)NC(=O)[C@H]([C@@H](C)O)NC(=O)[C@H](CC(N)=O)NC1=O
notes: also called 1-18; Ex. No. 1-18
Take B11: the IC50 came to 11 nM and the Maximum % inhibition stood at 53%.

B12: Ac*-F-V-A-T-T-F-(N-Me)A-B-(N-Me)A-K-A-P-C*-G-NH2 (peptide)
peptide: {CH2CO}-FVATTF[NMeA][Bip][NMeA]KAPCG-NH2
modifications: thioether N-13
SMILES: CC(C)[C@@H]1NC(=O)[C@H](Cc2ccccc2)NC(=O)CSC[C@@H](C(=O)NCC(N)=O)NC(=O)[C@@H]2CCCN2C(=O)[C@H](C)NC(=O)[C@H](CCCCN)NC(=O)[C@H](C)N(C)C(=O)[C@H](Cc2ccc(-c3ccccc3)cc2)NC(=O)[C@H](C)N(C)C(=O)[C@H](Cc2ccccc2)NC(=O)[C@H]([C@@H](C)O)NC(=O)[C@H]([C@@H](C)O)NC(=O)[C@H](C)NC1=O
notes: also called 1-22; Ex. No. 1-22
Consider B12, for which the IC50 was 12 nM and the Maximum % inhibition is 49%.

B13: Ac*-F-V-N-T-T-F-(N-Me)A-B-(N-Me)A-K-A-P-C*-G-NH2 (peptide)
peptide: {CH2CO}-FVNTTF[NMeA][Bip][NMeA]KAPCG-NH2
modifications: thioether N-13
SMILES: CC(C)[C@@H]1NC(=O)[C@H](Cc2ccccc2)NC(=O)CSC[C@@H](C(=O)NCC(N)=O)NC(=O)[C@@H]2CCCN2C(=O)[C@H](C)NC(=O)[C@H](CCCCN)NC(=O)[C@H](C)N(C)C(=O)[C@H](Cc2ccc(-c3ccccc3)cc2)NC(=O)[C@H](C)N(C)C(=O)[C@H](Cc2ccccc2)NC(=O)[C@H]([C@@H](C)O)NC(=O)[C@H]([C@@H](C)O)NC(=O)[C@H](CC(N)=O)NC1=O
notes: also called 1-23; Ex. No. 1-23
Molecule B13 had an IC50 of 22 nM and a Maximum % inhibition of 36%.

B14: Ac*-F-E-N-T-T-F-(N-Me)A-B-(N-Me)A-A-S-P-C*-G-NH2 (peptide)
peptide: {CH2CO}-FENTTF[NMeA][Bip][NMeA]ASPCG-NH2
modifications: thioether N-13
SMILES: C[C@@H]1NC(=O)[C@H](C)N(C)C(=O)[C@H](Cc2ccc(-c3ccccc3)cc2)NC(=O)[C@H](C)N(C)C(=O)[C@H](Cc2ccccc2)NC(=O)[C@H]([C@@H](C)O)NC(=O)[C@H]([C@@H](C)O)NC(=O)[C@H](CC(N)=O)NC(=O)[C@H](CCC(=O)O)NC(=O)[C@H](Cc2ccccc2)NC(=O)CSC[C@@H](C(=O)NCC(N)=O)NC(=O)[C@@H]2CCCN2C(=O)[C@H](CO)NC1=O
notes: also called 1-27; Ex. No. 1-27
In turn, B14 gave an IC50 of 410 nM and a Maximum % inhibition of 55%.

B15: Ac*-F-V-S-T-T-F-(N-Me)A-B-(N-Me)A-E-A-P-C*-G-NH2 (peptide)
peptide: FVSTTFAXAEAPCG
modifications: not fully specified; N-terminal acetyl (Ac*) joined by a sulfide bond to the side chain of Cys13 (cyclic); 7: L-(N-Me)Ala; 8: L-Bip; 9: L-(N-Me)Ala; C-terminal amide (NH2)
notes: also called 1-24; Ex. No. 1-24
For B15, the IC50 is 6.8 nM and the Maximum % inhibition is 70%.

The values above are taken from US20220024981A1 (Novartis, published 2022).
